Results on three molecules are retold here after patent US20240101640A1 (CSL BEHRING, published 2024).

The chains are these.
B1: HuLRP1(1-24)-FLAG-HuLRP1(806-1183)-8His (huLRP1 soluble minireceptor, ligand binding domain II) (receptor)
chain: AIDAPDYKDDDDKKKCRVNNGGCSSLCLATPGSRQCACAEDQVLDADGVTCLANPSYVPPPQCQPGEFACANSRCIQERWKCDGDNDCLDNSDEAPALCHQHTCPSDRFKCENNRCIPNRWLCDGDNDCGNSEDESNATCSARTCPPNQFSCASGRCIPISWTCDLDDDCGDRSDESASCAYPTCFPLTQFTCNNGRCININWRCDNDNDCGDNSDEAGCSHSCSSTQFKCNSGRCIPEHWTCDGDNDCGDYSDETHANCTNQATRPPGGCHTDEFQCRLDGLCIPLRWRCDGDTDCMDSSDEKSCEGVTHVCDPSVKFGCKDSARCISKAWVCDGDNDCEDNSDEENCESLACRPPSHPCANNTSVCLPPDKLCDGNDDCGDGSDEGELCDHHHHHHHH
notes: also called LRP1.2; LPR1 domain II
B2: heme-hemopexin complex (human plasma derived hemopexin saturated with hemin) (ligand)
chain: TPLPPTSAHGNVAEGETKPDPDVTERCSDGWSFDATTLDDNGTMLFFKGEFVWKSHKWDRELISERWKNFPSPVDAAFRQGHNSVFLIKGDKVWVYPPEKKEKGYPKLLQDEFPGIPSPLDAAVECHRGECQAEGVLFFQGDREWFWDLATGTMKERSWPAVGNCSSALRWLGRYYCFQGNQFLRFDPVRGEVPPRYPRDVRDYFMPCPGRGHGHRNGTGHGNSTHHGPEYMRCSPHLVLSALTSDNHGATYAFSGTHYWRLDTSRDGWHSWPIAHQWPQGPSAVDAAFSWEEKLYLVQGTQVYVFLTKGGYTLVSGYPKRLEKEVGTPHGIILDSVDAAFICPGSSRLHIMAGRRLWWLDLKSGAQATWTELPWPHEKVDGALCMEKSLGPNSCSANGPGLYLIHGPNLYCYSDVEKLNAAKALPQPQNVTSLLGCTH
modifications: heme (hemin) bound non-covalently in a 1:1 ratio
notes: also called heme-hpx complex; heme-hx complex
B3: HuLRP1(1-24)-FLAG-HuLRP1(25-113)-8His (huLRP1 soluble minireceptor, ligand binding domain I) (receptor)
chain: AIDAPDYKDDDDKKKTCSPKQFACRDQITCISKGWRCDGERDCPDGSDEAPEICPQSKAQRCQPNEHNCLGTELCVPMSRLCNGVQDCMDGSDEGPHCRELQGHHHHHHHH
notes: also called LPR1 domain I; LRP1 domain 1

In assay [1] the target is B2. Briefly: BLI (Octet), LRP1.2 captured on anti-Penta-His biosensor, heme-hpx complex as analyte at 0.312-2.5 µM [LRP1.2]. As for the experimental part: (§1) Individual LRP1 domains were immobilized on the biosensor surface. After baseline recording four concentration of heme-hpx complexes were tested (2.5, 1.25, 0.625 and 0.312 μM). For LRP1.3 the reference subtracted and processed kinetic dataset was globally fitted using a 1:1 binding model. Heme-hpx is shown in red curves, fitted curve as solid black line. LRP1.1, LRP1.2, LRP1.4 and LRP1.5 were not fitted.
(§2) As described above, anti-penta His antibody pre-coated biosensors (Cat N°: 18-5120, ForteBio, TechNote 43: Anti-Penta-HIS (HIS1K) biosensors for label-free analysis of HIS-tagged proteins, 2019) were used. The different LRP1 domains were immobilized at a concentration of 15 μg/mL in 10× kinetic buffer (PBS, 0.1% BSA, 0.02% Tween20). Heme-Hpx complex was diluted in 10× kinetic buffer (PBS, 0.1% BSA, 0.02% Tween20). The association and dissociation kinetics of heme-hemopexin complex, were performed at concentrations of 2.5, 1.25, 0.625 and 0.3125 μM. A reference control was included in every experiment (sensor loaded with ligand without analyte). Data was acquired on an OctetRED96 (FortéBio) at 30° C. with the following settings:
(§3) To investigate and determine, which of the LRP1 domains bind the heme-hpx complex, each of the domains were tethered on biosensors (HIS1K; anti-penta-His) via the expressed His-tag.
On the technique in general: In BLI a coated tip is dipped into the sample, and binding shifts an interference pattern.

Assay [2] deals with T1, HuLRP1(1-24)-FLAG-HuLRP1(2481-2942)-8His (huLRP1 soluble minireceptor, ligand binding domain III) (human, UniProt Q07954 2481-2942).
T1 construct: Made in ExpiCHO-S cells; also called LRP1.3; LRP1 domain III
T1 sequence (Q07954 other isoform, or with tags, fused parts or gaps): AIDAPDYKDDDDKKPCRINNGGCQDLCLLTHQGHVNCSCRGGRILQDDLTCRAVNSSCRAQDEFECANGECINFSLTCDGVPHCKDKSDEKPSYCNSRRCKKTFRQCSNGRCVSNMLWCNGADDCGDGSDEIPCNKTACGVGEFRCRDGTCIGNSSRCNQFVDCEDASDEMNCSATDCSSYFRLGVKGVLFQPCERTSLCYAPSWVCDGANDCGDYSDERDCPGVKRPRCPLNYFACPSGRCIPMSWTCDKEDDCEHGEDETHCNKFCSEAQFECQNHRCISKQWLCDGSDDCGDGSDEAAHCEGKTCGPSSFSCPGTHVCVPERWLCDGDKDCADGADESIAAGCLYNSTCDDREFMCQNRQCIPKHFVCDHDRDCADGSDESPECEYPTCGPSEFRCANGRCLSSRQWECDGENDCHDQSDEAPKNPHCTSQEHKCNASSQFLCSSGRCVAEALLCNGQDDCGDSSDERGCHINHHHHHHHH
Description: SPR, LRP1.3 tethered on NTA chip (capture cross link), heme-hpx (batch TO411122) 0.62-20 µM, 1:1 steady state fit, run 3. As for the experimental part:
(§4) Heme-hpx complex was injected in duplicate at concentrations ranging from 0.62 to 20 μM in 2-fold dilution series over 30 seconds. The dissociation was monitored for 60 seconds. No regeneration step was required between cycles since the complex dissociated fully. Sensogram data from active surface (flow cell 4) were double referenced by subtraction of data from reference surface (flow cells 3) and blank injections. Sensogram data were fit to a 1:1 steady state model.
(§5) In a next step and as mentioned above an alternative assay setup was developed as illustrated in FIG. 7A.
(In SPR one partner is held on a chip, and binding of the other changes the refractive index at the surface.)

The target in assay [3] is T1, HuLRP1(1-24)-FLAG-HuLRP1(2481-2942)-8His …. Briefly: SPR (Biacore), LRP1.3 tethered on NTA chip, heme-hpx complex ("new", batch TO341022BM by the legend) as analyte at 0.62-20 µM, steady state 1:1 fit. As for the experimental part:
as §4

Assay [4] shares this target. Description: SPR, LRP1.3 tethered on NTA chip (capture cross link), heme-hpx (batch TO411122), 1:1 steady state fit, mean of N = 3.
For assay [5] the target is unchanged. Briefly: SPR, LRP1.3 tethered on NTA chip, heme-hpx complex batch TO342022B (“Aged”), 1:1 steady state fit, N = 1. As for the experimental part:
as §4

Assay [6] has the same target. Description: SPR, LRP1.3 tethered on NTA chip (capture cross link), heme-hpx (batch TO411122) 0.62-20 µM, 1:1 steady state fit, run 1. As for the experimental part: as §4
Assay [7] has the same target. Briefly: SPR (Biacore), LRP1.3 tethered on NTA chip, heme-hpx complex batch TO411122 (as titled on the sheet) as analyte at 0.62-20 µM, steady state 1:1 fit. As for the experimental part: as §4
The target of assay [8] is T2, HuLRP1 (3332-3779)-8His (second ligand binding domain IV construct) (human, UniProt Q07954 3332-3779).
T2 construct: Any N-terminal residues left from a signal peptide or tag are not described; also called LRP1.5; LPR1 domain IV (LRP1.5)
T2 sequence (Q07954 other isoform, or with tags, fused parts or gaps): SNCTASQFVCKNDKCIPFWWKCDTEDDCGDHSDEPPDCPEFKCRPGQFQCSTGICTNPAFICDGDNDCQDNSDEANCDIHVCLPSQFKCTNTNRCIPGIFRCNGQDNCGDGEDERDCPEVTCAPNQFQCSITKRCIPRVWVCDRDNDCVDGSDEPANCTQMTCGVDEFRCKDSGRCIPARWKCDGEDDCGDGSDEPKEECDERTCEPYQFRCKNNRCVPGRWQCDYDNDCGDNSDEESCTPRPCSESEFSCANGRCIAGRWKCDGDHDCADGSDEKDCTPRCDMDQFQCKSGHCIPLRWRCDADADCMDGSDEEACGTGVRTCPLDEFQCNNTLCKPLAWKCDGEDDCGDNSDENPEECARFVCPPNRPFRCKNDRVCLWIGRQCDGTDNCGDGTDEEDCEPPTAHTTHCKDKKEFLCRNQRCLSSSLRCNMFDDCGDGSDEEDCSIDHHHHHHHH
Description: BLI (Octet), LRP1.5 captured on anti-Penta-His biosensor, heme-hpx complex as analyte at 0.312-2.5 µM [LRP1.5]. As for the experimental part:
as §1, §2, §3

Assay [9] deals with T1, HuLRP1(1-24)-FLAG-HuLRP1(2481-2942)-8His …. Description: SPR, LRP1.3 tethered on NTA chip, heme-hpx complex batch TO341022BM (“New”), 1:1 steady state fit, N = 1.
The target is the same in assay [10]. Briefly: BLI (OctetRED96, 30 °C), LRP1.3 captured on anti-penta-His biosensor, heme-hpx (batch TO294001) 2.5-0.312 µM, global 1:1 fit. As for the experimental part: as §1
as §2, with “settings: […]” for “settings:”

Assay [11] shares this target. Briefly: SPR (Biacore, 37 °C), heme-hpx (batch TO411122) captured by anti-hemopexin polyclonal antibody on CM5, LRP1.3 0.312-20 µM as analyte, kinetic fit (not optimal).
Assay [12] has the same target. Briefly: SPR, LRP1.3 tethered on NTA chip, heme-hpx complex batch T0342022C as printed, 1:1 steady state fit, N = 1.
For assay [13] the target is unchanged. Description: SPR, LRP1.3 tethered on NTA chip (capture cross link), heme-hpx (batch TO411122) 0.62-20 µM, 1:1 steady state fit, run 2. As for the experimental part: as §4, §5
The target in assay [14] is T3, HuLRP1(1-24)-FLAG-HuLRP1(3293-3783)-8His (huLRP1 soluble minireceptor, ligand binding domain IV) (human, UniProt Q07954 3293-3783).
T3 construct: also called LRP1.4; LPR1 domain IV
T3 sequence (Q07954 other isoform, or with tags, fused parts or gaps): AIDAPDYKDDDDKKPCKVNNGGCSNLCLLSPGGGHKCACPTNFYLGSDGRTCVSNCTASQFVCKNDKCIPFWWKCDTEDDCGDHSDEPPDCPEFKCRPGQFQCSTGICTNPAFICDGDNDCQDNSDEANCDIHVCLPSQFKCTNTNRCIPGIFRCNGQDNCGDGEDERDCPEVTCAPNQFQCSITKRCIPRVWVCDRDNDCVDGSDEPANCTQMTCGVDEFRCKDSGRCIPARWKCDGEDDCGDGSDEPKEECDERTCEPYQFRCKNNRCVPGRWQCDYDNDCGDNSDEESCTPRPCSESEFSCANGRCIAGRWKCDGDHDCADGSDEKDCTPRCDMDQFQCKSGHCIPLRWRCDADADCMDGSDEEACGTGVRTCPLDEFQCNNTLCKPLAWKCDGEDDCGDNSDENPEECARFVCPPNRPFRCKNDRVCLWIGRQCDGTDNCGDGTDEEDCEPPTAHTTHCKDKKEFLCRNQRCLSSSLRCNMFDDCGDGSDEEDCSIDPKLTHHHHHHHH
Briefly: BLI (Octet), LRP1.4 captured on anti-Penta-His biosensor, heme-hpx complex as analyte at 0.312-2.5 µM [LRP1.4]. As for the experimental part: as §1, §2, §3

For assay [15], the target named is T1, HuLRP1(1-24)-FLAG-HuLRP1(2481-2942)-8His …. Briefly: SPR (Biacore), LRP1.3 tethered on NTA chip, heme-hpx complex ("aged", batch TO342022B by the legend) as analyte at 0.62-20 µM, steady state 1:1 fit. As for the experimental part: as §4
The target in assay [16] is B2. Briefly: BLI (Octet), LRP1.1 captured on anti-Penta-His biosensor, heme-hpx complex as analyte at 0.312-2.5 µM [LRP1.1]. As for the experimental part: as §1, §2, §3

On to B1, for which the binding result in assay [1] was “no binding (tested: 2.5 µM heme-hpx complex)”.
In general, Kd refers to the concentration at which binding is half-saturated. Read a high Kd as a looser complex. By koff is commonly meant a measure of how fast the partners let go of each other. A low value points to a long-lived complex. In general, kon refers to the second-order rate constant of association. For B2, the dissociation constant (Kd) in [2] came to 2630 nM; in assay [3], 1400 nM; in [4] it was 2620 nM; in assay [5], 1350 nM; in assay [6], 2620 nM; in assay [7] it was 1400 nM. Moreover, the Kd in [9] is 1410 nM; in assay [10], 1460 nM; in assay [11] it was roughly 2000 nM; in assay [12], 1340 nM; in assay [13], 2610 nM; in assay [15] it was 1400 nM. For the same molecule, the binding result in assay [8] and in [14] was “no binding (tested: 2.5 µM heme-hpx complex)” each time. The off-rate (koff) in assay [10] amounted to 0.0555 s⁻¹. For the same molecule, the on-rate (kon) in assay [10] was 37900 M⁻¹ s⁻¹.
For the molecule B3, the binding result in assay [16] is reported as “no binding (tested: 2.5 µM heme-hpx complex)”.
